Legend:
[1] = system: T1, leucyl oligopeptide of SEQ ID NO: 2
T1 sequence: LFPTEPS

[2] = target: methionyl human growth hormone (UniProt P01241)
[3] = system: T2, methionyl oligopeptide of SEQ ID NO: 1 (Met-Phe-Pro-Thr-Glu-Pro-Ser)
T2 sequence: MFPTEPS

Sequence of methionyl human growth hormone (P01241 other isoform, or with tags, fused parts or gaps): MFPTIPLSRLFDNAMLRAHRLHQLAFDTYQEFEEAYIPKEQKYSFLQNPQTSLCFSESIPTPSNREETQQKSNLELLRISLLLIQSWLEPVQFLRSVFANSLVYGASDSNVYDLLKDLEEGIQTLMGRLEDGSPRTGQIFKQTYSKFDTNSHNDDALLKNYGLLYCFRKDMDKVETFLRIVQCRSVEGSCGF

aminopeptidase from Bacillus licheniformis (purified from Bacillus licheniformis ATCC 12759)
Kcat/Km [1]: 1630 mM⁻¹ s⁻¹
Km [1]: 0.172 mM
kcat [1]: 276 s⁻¹
removal of N-terminal methionine (N-terminal sequencing of the recovered HGH) [2]: remove N-terminal methionine of methionyl HGH completely
removal of N-terminal methionine, large scale (N-terminal sequencing of the recovered HGH) [2]: HGH produced by the above process had phenylalanine at the N-terminus due to methionine removal
Kcat/Km [3]: 56.1 mM⁻¹ s⁻¹
Km [3]: 0.387 mM
kcat [3]: 21.1 s⁻¹

From US6428997
